What was measured:
[1] = target: 구제역 바이러스 혈청형 O 배양액(cal1~cal4) (Foot-and-mouth disease virus serotype O); assay: sandwich ELISA, cal3, 1E58 coat 4 ug/ml, 1E58-HRP 0.6 ug/ml, 450 nm
[2] = target: 구제역 바이러스 혈청형 O 배양액(cal1~cal4) (Foot-and-mouth disease virus serotype O); assay: sandwich ELISA, cal3, 1E58 coat 8 ug/ml, 1E58-HRP 0.2 ug/ml, 450 nm
[3] = target: 구제역 바이러스 혈청형 O 배양액(cal1~cal4) (Foot-and-mouth disease virus serotype O); assay: sandwich ELISA, cal1, 1E58 coat 2 ug/ml, 1E58-HRP 0.6 ug/ml, 450 nm
[4] = target: 구제역 바이러스 혈청형 O 배양액(cal1~cal4) (Foot-and-mouth disease virus serotype O); assay: sandwich ELISA, cal4, 1E58 coat 2 ug/ml, 1E58-HRP 0.6 ug/ml, 450 nm
[5] = target: 구제역 바이러스 혈청형 O 배양액(cal1~cal4) (Foot-and-mouth disease virus serotype O); assay: sandwich ELISA, cal3, 1E58 coat 8 ug/ml, 1E58-HRP 0.4 ug/ml, 450 nm
[6] = target: 구제역 바이러스 혈청형 O 배양액(cal1~cal4) (Foot-and-mouth disease virus serotype O); assay: sandwich ELISA, cal1, 1E58 coat 2 ug/ml, 1E58-HRP 0.2 ug/ml, 450 nm
[7] = target: 구제역 바이러스 혈청형 O 배양액(cal1~cal4) (Foot-and-mouth disease virus serotype O); assay: sandwich ELISA, cal4, 1E58 coat 2 ug/ml, 1E58-HRP 0.2 ug/ml, 450 nm
[8] = target: 구제역 바이러스 혈청형 O 배양액(cal1~cal4) (Foot-and-mouth disease virus serotype O); assay: sandwich ELISA, cal1, 1E58 coat 1 ug/ml, 1E58-HRP 0.8 ug/ml, 450 nm
[9] = target: FMDV 혈청형 A 연천주 (Foot-and-mouth disease virus serotype A); assay: sandwich ELISA, 1E58 coat 4 ug/ml, 1E58-HRP 0.3 ug/ml, virus culture fluid
[10] = target: FMDV 혈청형 SAT1 SAT1/BOT/1/68 (Foot-and-mouth disease virus serotype SAT1); assay: as above
[11] = target: FMDV 혈청형 SAT3 SAT3/ZIM/4/81 (Foot-and-mouth disease virus serotype SAT3); assay: as above
[12] = target: FMDV 혈청형 C C3/Resende/BRA/55 (Foot-and-mouth disease virus serotype C); assay: as above
[13] = target: FMDV 혈청형 SAT2 SAT2/ZIM/5/81 (Foot-and-mouth disease virus serotype SAT2); assay: as above
[14] = target: FMDV 혈청형 O Primorsky (Foot-and-mouth disease virus serotype O); assay: as above
[15] = target: FMDV 혈청형 O Campos (Foot-and-mouth disease virus serotype O); assay: as above
[16] = target: FMDV 혈청형 O 보은 1차 (Foot-and-mouth disease virus serotype O); assay: as above
[17] = target: FMDV 혈청형 O O/Hapcheon/KOR/2014 (Foot-and-mouth disease virus serotype O); assay: as above
[18] = target: FMDV 혈청형 A 포천주 (Foot-and-mouth disease virus serotype A); assay: as above
[19] = target: FMDV 혈청형 O Yang-Ju (Foot-and-mouth disease virus serotype O); assay: as above
[20] = target: FMDV 혈청형 O 진천 (Foot-and-mouth disease virus serotype O); assay: as above
[21] = target: FMDV 혈청형 O 정읍 (Foot-and-mouth disease virus serotype O); assay: as above
[22] = target: FMDV 혈청형 A A22 Iraq (Foot-and-mouth disease virus serotype A); assay: as above
[23] = target: FMDV 혈청형 Asia1 CAM/9/80 (Foot-and-mouth disease virus serotype Asia1); assay: as above
[24] = target: FMDV 혈청형 Asia1 MOG/05 (Foot-and-mouth disease virus serotype Asia1); assay: as above
[25] = target: FMDV 혈청형 Asia1 Shamir (Foot-and-mouth disease virus serotype Asia1); assay: as above
[26] = target: FMDV 혈청형 O O1 Manisa (Foot-and-mouth disease virus serotype O); assay: as above
[27] = target: FMDV 혈청형 O 김제 (Foot-and-mouth disease virus serotype O); assay: as above
[28] = target: FMDV 혈청형 O Yunlin/Taiwan/97 (Foot-and-mouth disease virus serotype O); assay: as above
[29] = target: FMDV 혈청형 A Malaysia97 (Foot-and-mouth disease virus serotype A); assay: as above
[30] = target: 구제역 바이러스 혈청형 O 배양액(cal1~cal4) (Foot-and-mouth disease virus serotype O); assay: sandwich ELISA, cal4, 1E58 coat 1 ug/ml, 1E58-HRP 0.2 ug/ml, 450 nm

B1: 단클론항체 1E58 (antibody, V domains shown)
VH: EFQLQQSRPELAKPGASVKISCKTSGHTFTTYTMHWVKQSHVKSLEWIGCFNPNNGGATYNQKFKGKATLTMDKSSNTAYVEVRSLTSDDSAVYYCAYGNYVNFDYWGQGTTLTVSS
VL: DIVLTQSPASLAVSLGQRATISYRASKSVSTSGYSYMHWNQQKPGQPPRLLIYLVSNLESGVPARFSGSGSGTDFTLNIHPVEEEDAATYYCQHIRELTRSEGGPSWKN
- O.D [1]: 2.15 O.D
- O.D [2]: 0.62 O.D
- O.D [3]: 3.68 O.D
- O.D [4]: 0.87 O.D
- O.D [5]: 0.96 O.D
- O.D [6]: 3.12 O.D
- O.D [7]: 0.62 O.D
- O.D [8]: 3.21 O.D
- O.D (450nm) [9]: 3.5 O.D
- O.D (450nm) [10]: 2.22 O.D
- O.D (450nm) [11]: 3.6 O.D
- O.D (450nm) [12]: 3.75 O.D
- O.D (450nm) [13]: 1.95 O.D
- O.D (450nm) [14]: 4 O.D
- O.D (450nm) [15]: 3.96 O.D
- O.D (450nm) [16]: 3.64 O.D
- O.D (450nm) [17]: 3.99 O.D
- O.D (450nm) [18]: 3.87 O.D
- O.D (450nm) [19]: 4 O.D
- O.D (450nm) [20]: 4 O.D
- O.D (450nm) [21]: 3.86 O.D
- O.D (450nm) [22]: 3.79 O.D
- O.D (450nm) [23]: 4 O.D
- O.D (450nm) [24]: 3.85 O.D
- O.D (450nm) [25]: 4 O.D
- O.D (450nm) [26]: 4 O.D
- O.D (450nm) [27]: 4 O.D
- O.D (450nm) [28]: 4 O.D
- O.D (450nm) [29]: 4 O.D
- O.D [30]: 0.5 O.D
